Source: publication PMC12362333

Legend:
[1] = target: KDEL receptor (KDEL‐R) (mouse (endogenous in DRG neurons)) (UniProt Q99JH8)
[2] = target: KDEL receptor (KDEL‐R) (mouse (endogenous in DRG neurons)) (UniProt Q99JH8); remark: listed apart in the source
[3] = target: KDEL receptor (KDEL‐R) (mouse (endogenous in DRG neurons)) (UniProt Q99JH8); remark: listed apart in the source
[4] = target: KDEL receptor (KDEL‐R) (mouse (endogenous in DRG neurons)) (UniProt Q99JH8); remark: listed apart in the source
[5] = target: KDEL receptor (KDEL‐R) (mouse (endogenous in DRG neurons)) (UniProt Q99JH8); remark: listed apart in the source

Sequence of UniProt Q99JH8 (Q99JH8 whole entry): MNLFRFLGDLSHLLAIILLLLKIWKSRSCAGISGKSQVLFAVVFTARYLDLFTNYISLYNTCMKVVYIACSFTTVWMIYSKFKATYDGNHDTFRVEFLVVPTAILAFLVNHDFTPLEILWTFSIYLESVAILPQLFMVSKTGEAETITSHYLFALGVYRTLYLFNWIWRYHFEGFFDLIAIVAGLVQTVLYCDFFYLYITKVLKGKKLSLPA

Substance | neurite length of DRG explants after 72 h (Figure 1B) [1] | neuritic area of DRG explants after 72 h, CDNF-ΔKTEL 1.8 and 18 μg/mL (Figure 1C) [2] | neurite length of DRG explants after NGF deprivation, CDNF-ΔKTEL 18 μg/mL for 48 h (Figure 3B) [3] | viable cells by LDH release, DRG explants under trophic deprivation, CDNF-ΔKTEL (Figure 3E) [4] | neurite length in dissociated DRG cell cultures, CDNF-ΔKTEL 18 μg/mL, 3 days (Figure 7B) [5] | neurite length of DRG explants after 72 h, CDNF 1.8 and 18 μg/mL (Figure 1B) [1] | neuritic area of DRG explants after 72 h, CDNF 18 μg/mL (Figure 1C) [2] | neurite length of DRG explants after NGF deprivation, CDNF 18 μg/mL for 48 h (Figure 3B) [3] | viable cells by LDH release, DRG explants under trophic deprivation, CDNF 18 μg/mL (Figure 3E) [4] | neurite length in dissociated DRG cell cultures, CDNF 18 μg/mL, 3 days (Figure 7B) [5]
CDNF‐ΔKTEL (CDNF without the last four residues KTEL) (domain or fragment) | 200 μm | 2.9e+06 μm^2 | 200 μm | 61% | < 200 μm | – | – | – | – | –
cerebral dopamine neurotrophic factor (CDNF) (from UniProt Q49AH0 25-187) (ligand) | – | – | – | – | – | 600 μm | 5.2e+06 μm^2 | 500 μm | 75% | 390 μm
